Data taken from publication PMC9190123 (Molecular pharmaceutics, 2009).
Where two headings read alike, the source gives them in different places. Numbered stars: 1 amine (or outer) side, 2 acyl side, 3 side chain; on linkers, the order of the positions; unused ones are H or OH. Square brackets hold non-standard residues; d marks the D form. Side chains are listed from the residue outwards. Peptide text beside a SMILES is read from it. * marks the point of attachment. X1 = N[C@@H](CN*)C(=O)N[C@@H](CC(=O)O)C(=O)N[C@@H](CS)C(=O)O; γGlu = O=C(O)[C@H](CCC(=O)[*:2])N[*:1]; PEG6 = NCCOCCOCCOCCOCCOCCOCCC(=O)O; Dap = NC[C@H](N)C(=O)O; Aoc = NCCCCCCCC(=O)O; CO = O=C([*:1])[*:2]

Tests used:
[1] = molecular target: PSMA (PSMA-expressing LNCaP cells) (Homo sapiens, UniProt Q04609); test: LNCaP cell binding study; settings: for affinity for PSMA / LNCaP cells (in words): LNCaP cells in culture; for Kd: PSMA-positive LNCaP cells in culture, 1 h at 37 °C; for competitive inhibition of binding by excess PMPA: LNCaP cells, 100-fold excess PMPA
[2] = system: LNCaP tumor xenografts; type: in vivo, athymic nu/nu mice; settings: for tumor-specific accumulation by whole-body radioimaging: 4 h after ip injection; for accumulation in PSMA-positive tumors by γ-counting (in words): tissue biodistribution, 4 h; for Tumor:Tissue blood / Tumor:Tissue heart / Tumor:Tissue liver / Tumor:Tissue lung / Tumor:Tissue muscle / Tumor:Tissue skin / Tumor:Tissue spleen: mouse, in vivo, ip
[3] = type: in vivo, athymic nu/nu mice; settings: mouse, ip
[4] = system: PSMA-negative human tumor xenografts; settings: two PSMA-negative human tumor xenografts; cited from earlier work
[5] = male, athymic nu/nu, in vivo, 67 nmol, total radioactivity, tumor uptake, average % ID/g tissue

PSMA (PSMA-expressing LNCaP cells), sequence (Q04609 whole entry): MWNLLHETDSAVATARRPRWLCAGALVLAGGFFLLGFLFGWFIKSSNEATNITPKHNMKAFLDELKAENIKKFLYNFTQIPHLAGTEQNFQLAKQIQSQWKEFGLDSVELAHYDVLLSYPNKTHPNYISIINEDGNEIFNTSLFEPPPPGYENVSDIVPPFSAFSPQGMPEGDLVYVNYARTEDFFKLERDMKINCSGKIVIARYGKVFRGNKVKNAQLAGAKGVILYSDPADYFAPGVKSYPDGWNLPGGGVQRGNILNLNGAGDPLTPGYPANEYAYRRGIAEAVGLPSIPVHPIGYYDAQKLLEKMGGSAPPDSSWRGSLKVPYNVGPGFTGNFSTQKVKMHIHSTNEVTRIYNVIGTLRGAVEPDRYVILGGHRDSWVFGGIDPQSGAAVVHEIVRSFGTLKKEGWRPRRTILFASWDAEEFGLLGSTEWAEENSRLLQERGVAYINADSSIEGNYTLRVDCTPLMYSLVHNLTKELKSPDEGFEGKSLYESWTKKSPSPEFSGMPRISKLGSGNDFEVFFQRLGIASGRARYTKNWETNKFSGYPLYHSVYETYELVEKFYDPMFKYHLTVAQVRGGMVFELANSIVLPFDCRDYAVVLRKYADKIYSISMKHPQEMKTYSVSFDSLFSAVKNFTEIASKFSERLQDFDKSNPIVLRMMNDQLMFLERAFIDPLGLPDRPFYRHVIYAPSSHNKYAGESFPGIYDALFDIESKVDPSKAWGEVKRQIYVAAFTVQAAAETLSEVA

| Structure (SMILES) | affinity for PSMA / LNCaP cells (in words) [1] | Kd [1] | tumor-specific accumulation by whole-body radioimaging ([2]; radioimaging) | accumulation in PSMA-positive tumors by γ-counting (in words) [2] | competitive inhibition of binding by excess PMPA [1] | tissue uptake at 4 h [3, 5] | tissue uptake at 4 h ([3]; in vivo, % ID/g kidney) | Tumor:Tissue blood [2] | Tumor:Tissue heart [2] | Tumor:Tissue liver [2] | Tumor:Tissue lung [2] | Tumor:Tissue muscle [2] | Tumor:Tissue skin [2] | Tumor:Tissue spleen [2] | internalization by LNCaP cells ([1]; 1 h at 4 °C vs 37 °C) | tissue uptake at 4 h ([3]; kidney, 67 nmol, % ID/g kidney, kidney, 4 h after ip injection) | LNCaP tumor uptake with coinjection of excess PMPA ([2]; competition with 100-fold excess PMPA, radioimaging) | uptake in PSMA-negative tumors [4] |
| --- | --- | --- | --- | --- | --- | --- | --- | --- | --- | --- | --- | --- | --- | --- | --- | --- | --- | --- |
| N[C@@H](CNC(=O)[C@H](Cc1ccccc1)NC(=O)CCOCCOCCOCCOCCOCCOCCNC(=O)CC[C@H](NC(=O)N[C@@H](CCC(=O)O)C(=O)O)C(=O)O)C(=O)N[C@@H](CC(=O)O)C(=O)N[C@@H](CS)C(=O)O [compound 8] (H-[Dap]([Phe-PEG6-γGlu-CO-Glu])-Asp-Cys-OH) | weak affinity | 0.338 µM | not observed | did not accumulate |  |  |  |  |  |  |  |  |  |  |  |  |  |  |
| N[C@@H](CNC(=O)[C@H](CCC(=O)O)NC(=O)[C@H](Cc1ccccc1)NC(=O)CCCCCCCNC(=O)CC[C@H](NC(=O)N[C@@H](CCC(=O)O)C(=O)O)C(=O)O)C(=O)N[C@@H](CC(=O)O)C(=O)N[C@@H](CS)C(=O)O [compound 6] (H-[Dap]([Glu-Phe-Aoc-γGlu-CO-Glu])-Asp-Cys-OH) | somewhat lower affinities | 0.031 µM | accumulated predominantly in the PSMA-positive LNCaP tumors |  | nearly quantitative competition | 9.8 ± 2.4 %ID/g | 42.9 %ID/g | 51.4 | 93.3 | 11.6 | 18.9 | 74.2 | 28.7 | 4.5 |  |  |  |  |
| N[C@@H](CNC(=O)CC[C@H](NC(=O)N[C@@H](CCC(=O)O)C(=O)O)C(=O)O)C(=O)N[C@@H](CC(=O)O)C(=O)N[C@@H](CS)C(=O)O [compound 3] (H-[Dap]([γGlu-CO-Glu])-Asp-Cys-OH) | weak affinity | 0.176 µM | not observed | did not accumulate |  |  |  |  |  |  |  |  |  |  |  |  |  |  |
| N[C@@H](CNC(=O)[C@H](Cc1ccccc1)NC(=O)[C@H](Cc1ccccc1)NC(=O)CCCCCCCNC(=O)CC[C@H](NC(=O)N[C@@H](CCC(=O)O)C(=O)O)C(=O)O)C(=O)N[C@@H](CC(=O)O)C(=O)N[C@@H](CS)C(=O)O [compound 5] (H-[Dap]([Phe-Phe-Aoc-γGlu-CO-Glu])-Asp-Cys-OH) | most avid interaction | 0.0138 ± 0.0039 µM | accumulated predominantly in the PSMA-positive LNCaP tumors |  | nearly quantitative competition | 9.8 ± 2.4 %ID/g |  | 36.4 | 80.9 | 20.2 | 35.2 | 78.9 | 30.7 | 18.4 | internalization of the DUPA conjugate at physiological temperature | 37.8 %ID/g | eliminated LNCaP tumor uptake | no uptake |
| N[C@@H](CNC(=O)[C@H](Cc1ccccc1)NC(=O)[C@H](Cc1ccccc1)NC(=O)CNC(=O)[C@H](CCC(=O)O)NC(=O)[C@H](Cc1ccccc1)NC(=O)CC[C@H](NC(=O)N[C@@H](CCC(=O)O)C(=O)O)C(=O)O)C(=O)N[C@@H](CC(=O)O)C(=O)N[C@@H](CS)C(=O)O [compound 7] ({Glu-CO-γGlu}-FEGFF-X1) |  |  | accumulated predominantly in the PSMA-positive LNCaP tumors |  |  |  |  |  |  |  |  |  |  |  |  |  |  |  |
| N[C@@H](CNC(=O)[C@H](Cc1ccccc1)NC(=O)[C@H](CCC(=O)O)NC(=O)CC[C@H](NC(=O)N[C@@H](CCC(=O)O)C(=O)O)C(=O)O)C(=O)N[C@@H](CC(=O)O)C(=O)N[C@@H](CS)C(=O)O [compound 4] (H-[Dap]([Phe-Glu-γGlu-CO-Glu])-Asp-Cys-OH) | somewhat lower affinities | 0.06 µM | accumulated predominantly in the PSMA-positive LNCaP tumors |  | nearly quantitative competition | 9.8 ± 2.4 %ID/g | 3.4 %ID/g | 91.7 | 112.2 | 62.9 | 101.8 | 115.1 | 92.3 | 66.7 |  |  |  |  |
